Assay results as given in paper PMC10003451, “Phosphorylated Peptide Derived from the Myosin Phosphatase Target Subunit Is a Novel Inhibitor of Protein Phosphatase-1” (International Journal of Molecular Sciences, 2023).

Tests used:
[1] = target: T1, recombinant PP1cα (rPP1cα) (Homo sapiens, UniProt P62136); assay: Microscale thermophoresis (MST); assay type: binding; conditions: rPP1cα 2 µM, peptide 9.16 nM-300 µM, 25 mM Tris/HCl, 100 mM NaCl, 1 mM DTT, 0.1% PEG 8000, pH 8.0; intrinsic fluorescence, Monolith NT.LabelFree
T1 construct: made in house; host or cells: E. coli
T1 sequence (P62136 whole entry): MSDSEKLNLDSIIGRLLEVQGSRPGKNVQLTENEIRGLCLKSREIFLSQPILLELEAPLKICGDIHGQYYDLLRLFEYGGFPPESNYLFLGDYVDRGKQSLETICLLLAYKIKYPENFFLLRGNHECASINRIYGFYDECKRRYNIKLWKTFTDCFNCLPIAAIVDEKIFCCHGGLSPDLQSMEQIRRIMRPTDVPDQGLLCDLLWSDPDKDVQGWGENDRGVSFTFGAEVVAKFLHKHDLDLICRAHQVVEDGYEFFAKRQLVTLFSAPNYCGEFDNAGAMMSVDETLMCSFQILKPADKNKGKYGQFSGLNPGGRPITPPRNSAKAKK
Experimental: The interaction of P-Thr696-MYPT1^690−701 and the recombinant PP1cα (rPP1cα) was studied by Monolith^TM NT.LabelFree (MST power: 40%; LED Power: 10%) instrument (NanoTemper Technologies GmbH, Munich, Germany). A 16-point two-fold P-Thr696-MYPT1^690−701 peptide dilution series was generated (9.16 nM-300 µM) in 25 mM Tris/HCl, 100 mM NaCl, 1 mM DTT, 0.1% PEG 8000, pH 8.0 and mixed with rPP1cα (2 µM). The mixtures were loaded into NT.LabelFree standard capillaries. The capillaries on the capillary tray were scanned and intrinsic fluorescence change of rPP1cα upon ligand binding was recorded. The data were analyzed by MO.Affinity Analysis v2.3 software.

[2] = test system: native catalytic subunit of PP1 (PP1c); assay: Phosphatase assay of native PP1c with ^32P-MLC20 substrate; assay type: biochemical, rabbit skeletal muscle; conditions: PP1c 1.5–2.2 nM, 1 µM ^32P-MLC20, pH 7.4, 30 °C; n = 4
Experimental: Figure 2 Effects of a phosphorylated peptide from MYPT1 on the activity of PP1c, PP2Ac and myosin phosphatase holoenzyme (Flag-MYPT1-PP1c). (A): The native catalytic subunit of PP1 (PP1c; ▼,●) or PP2A (PP2Ac; ∆) purified from rabbit skeletal muscle or Flag-MYPT1-PP1c overexpressed and isolated from tsa201 cells (○) was assayed in the presence of dephosphorylated (▼) or phosphorylated (○,●,∆) MYPT1 peptide of R^690QSRRS(pT696)QGVTL^701 (P-Thr696-MYPT1^690−701) with ^32P-MLC20 substrate as described in Section 4. Values are mean ± SD (n = 4). Phosphatase activity in the absence of peptide was taken 100%. (B): Interaction of recombinant PP1cα with the phosphorylated peptide assessed by microscale thermophoresis (MST) or (C): with isotherm titration calorimetry (ITC) as described in Section 4. […] Only the axis text 'MYPT1^690-701 peptides' names the substance, and no target is printed. / Panel C: the picture prints no substance label for the ITC parameters.
The ^32Pi released from ^32P-MLC20 substrate were determined as previously described. The assay (80 µL) to determine the half-life of dephoshorylation for ^32P-MLC20 (10 µM) in the presence of various concentration of P-Thr696-MYPT1^690−701 (10–500 µM) was carried out in a similar fashion except that 5 µL aliquots were removed from the reaction mixture at different intervals for radioactivity measurements.

[3] = target: T1, recombinant PP1cα (rPP1cα); assay: Isothermal titration calorimetry (ITC); assay type: binding; conditions: rPP1cα 0.5–2 µM, peptide 5–20 µM, 25 mM Tris/HCl (pH 8.0), 150 mM NaCl, 1 mM TCEP, 25 °C; one set of site model
Experimental: Isothermal titration calorimetry (ITC) experiments were carried out with MicroCal ITC200 instrument. rPP1cα was dialyzed in 25 mM Tris/HCl (pH 8.0), 150 mM NaCl, 1 mM TCEP (assay buffer) for 3 h first, then 16 h with a fresh batch of solution. Prior to measurements, rPP1cα (0.5–2 µM) was transferred into the sample cell of the calorimeter while the reference cell was filled with the assay buffer. P-Thr696-MYPT1^690−701 (5–20 µM) in the assay was applied to the syringe and 2 µL aliquot (19 times) was injected into the cell at a stirring rate of 300 rpm at 25 °C. The reference power was 5 µcal/s. The titration data were analyzed with MicroCal ITC-Origin software using one set of site model to obtain binding parameters of protein–ligand interaction.

**Q.** What does the source list for “MYPT1^690−701: synthesized MYPT1 peptide, non-phosphorylated (RQSRRSTQGVTL; UniProt O14974 690-701, looked up, fragment)”?
**A.** KD by MST [1]: no MST or ITC signals suitable for quantitative evaluation were obtained; effect on PP1c activity [2]: without effect; KD by ITC [3]: no MST or ITC signals suitable for quantitative evaluation were obtained
